From paper PMC5300155, “Biochemical and biophysical investigations of the interaction between human glucokinase and pro-apoptotic BAD” (PLoS ONE, 2017)
“Also recorded” adds a separate entry of the source.

T1: GCK (Homo sapiens, UniProt P35557)
T1 construct: hexahistidine (N); made in house; host or cells: glucokinase auxotroph BM5340(DE3)
T1 sequence (P35557 1-465): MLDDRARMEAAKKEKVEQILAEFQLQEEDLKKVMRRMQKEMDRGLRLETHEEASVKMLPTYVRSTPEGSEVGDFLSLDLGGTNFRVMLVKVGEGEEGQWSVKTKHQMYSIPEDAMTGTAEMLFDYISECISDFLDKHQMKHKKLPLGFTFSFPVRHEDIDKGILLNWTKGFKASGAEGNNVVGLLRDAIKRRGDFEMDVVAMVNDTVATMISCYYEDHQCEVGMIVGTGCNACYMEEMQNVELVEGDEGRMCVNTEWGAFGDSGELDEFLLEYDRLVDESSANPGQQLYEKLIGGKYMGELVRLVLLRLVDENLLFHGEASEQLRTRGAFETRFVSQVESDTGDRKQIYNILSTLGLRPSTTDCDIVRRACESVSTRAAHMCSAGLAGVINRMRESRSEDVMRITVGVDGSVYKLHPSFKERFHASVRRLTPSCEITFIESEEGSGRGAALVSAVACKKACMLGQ

T2: human pancreatic GCK (Homo sapiens, UniProt P35557)
T2 construct: hexahistidine (N); made in house; host or cells: glucokinase auxotroph BM5340(DE3)
T2 sequence (P35557 1-465): T1 sequence (P35557 1-465)

B1: BAD-GST: recombinant human BAD with N-terminal hexahistidine tag and C-terminal GST fusion, TEV consensus sequence between (protein)
chain: MFQIPEFEPSEQEDSSSAERGLGPSPAGDGPSGSGKHHRQAPGLLWDASHQQEQPTSSSHHGGAGAVEIRSRHSSYPAGTEDDEGMGEEPSPFRGRSRSAPPNLWAAQRYGRELRRMSDEFVDSFKKGLPRPKSAGTATQMRQSSSWTRVFQSWWDRNLGRGSSAPSQ
modifications: left off: His6, N-terminal, state not stated | GST, C-terminal, kept

Key:
GCK = biological target: T1, GCK; assay: GCK activity, microplate G6PDH-linked assay as described by Szlyk et al. (37°C); assay type: biochemical; conditions: GCK 7.5 nM; for Effect on GCK Vmax: either assay (routine and Szlyk microplate), peptide 5 μM, 37°C in microplate assay
Experimental: Steady state kinetics were also performed as described by Szlyk, et al.[13]. Briefly, G6PDH-linked assays were performed in clear 96-well plates at 37°C with a SpectraMax M5 microplate reader (Molecular Devices) recording absorbance at 340 nm every 30 s. Reaction mixtures contained GCK (7.5 nM), HEPES (100 mM, pH 7.4), KCl (150 mM), MgCl2(6 mM), DTT (1 mM), NAD (1 mM), BSA (0.05%), G6PDH (2.5 U), glucose (0.5–100 mM), and ATP (5 mM) in the presence or absence of BAD-GST S118D variant (5 μM) or phosphorylated BAD BH3 peptide (5 μM) in a final volume of 100 μL.
GCK (7.5 nM) was assayed in the presence of A. S118D BADGST (5 μM) or B. pBH3 (5 μM) in a 96 well plate using a microplate reader. Buffer conditions were as follows: Ref [13]: 100 mM Hepes, pH 7.4; 150 mM KCl; 1 mM NAD+; 0.05% BSA; 6 mM MgCl2; 1 mM DTT; 2.5 U G6PDH; 5 mM ATP. Optimal GCK conditions: 100 mM Hepes, pH 7.4; 150 mM KCl; 1 mM NADP+; 6 mM MgCl2; 10 mM DTT; 1.5 U G6PDH; 5 mM ATP. (EPS) Click here for additional data file.

human pancreatic GCK = biological target: T2, human pancreatic GCK; assay: Size-exclusion chromatography of mixtures with GCK; assay type: binding; conditions: mixtures across a range of protein concentrations; BAD buffer pH 8.5, 4°C
Experimental: (§1) Size-exclusion chromatography was performed on a HiPrep 16/60 Sephacryl S-200 HR column (GE Healthcare) connected to a Bio-Rad DuoFlow FPLC. The column was calibrated with thyroglobulin (669 kDa), γ-globulin (158 kDa), ovalbumin (43 kDa), myoglobin (17 kDa), and vitamin B12 (1.35 kDa). All proteins were analyzed in BAD buffer (0.1 M Tris, 0.1 M KCl, 0.5 M arginine, 2.5 mM CHAPS, 5 mM TCEP, 10% glycerol, pH 8.5) at a flow rate of 0.02 mL/min at 4°C. Protein samples were concentrated to 800 μL and filtered through 0.2 μm filters before injection onto the size-exclusion column. For complex formation, equimolar mixtures of proteins were added to BAD buffer in a final volume of 800 μL and incubated on ice 30 min prior to injection onto the column.

[1] = Circular dichroism spectroscopy (secondary structure); assay type: physicochemical; conditions: far UV CD, 25°C, pH 7.8, 3–15 μM, CDPro
Experimental: Proteins were dialyzed overnight into potassium phosphate buffer (50 mM, pH 7.8) containing KCl (50 mM), glycerol (5% v/v), and TCEP (4 mM). CD spectra were recorded on an AVIV 202 CD spectrometer at 25°C with protein concentrations ranging from 3–15 μM. Spectra were recorded from 200–260 nm in 10 mm pathlength cuvettes using a 1 nm step resolution and 3 s integration time. Three scans were recorded per sample, averaged, and baseline subtracted with appropriate buffer controls. CD signals were converted to molar ellipticity and deconvoluted using CDPro Software.

Bcl-xL = biological target: T3, Bcl-xL (Homo sapiens, UniProt Q07817, DEL45-84); assay: Size-exclusion chromatography of 1:1 mixture with Bcl-xL; assay type: binding; conditions: 1:1 mixture of purified Bcl-xL and BAD-GST; BAD buffer pH 8.5, 4°C
T3 construct: made in house
Experimental: as §1

glucokinase (GCK) = assay: Chemical cross-linking (dimethyl pimelimidate) with GCK; assay type: binding, human; conditions: DMP, 50-fold molar excess, room temperature 1 h; 1:1 mixture, 40 μM protein; SDS-PAGE
Experimental: Protein samples were cross-linked with dimethyl pimelimidate (DMP). Aqueous stocks of cross-linkers were added to protein samples in a 50-fold molar excess and incubated at room temperature 1 h. Mixtures contained 20 μM protein (GCK or BAD) or 40 μM protein (1:1 mixture of glucokinase and BAD) in BAD buffer (0.1 M Tris, 0.1 M KCl, 0.5 M arginine, 2.5 mM CHAPS, 5 mM TCEP, 10% glycerol, pH 8.5). Reactions were immediately separated on SDS-PAGE and visualized with Coomassie blue staining.

[2] = Aggregation in refolding buffers (spin-filter assay); assay type: physicochemical; conditions: CHAPS (2.5 mM) and arginine (0.5 M)
Experimental: To determine buffer conditions for BAD-GST refolding, we made use of a spin-filter assay developed by Bondos and Bicknell. Purified protein was collected after size-exclusion chromatography and diluted into test buffers containing various stabilizers and detergents, including Triton-X (0.2%), CHAPS (1.25–6.0 mM), arginine (0.1–0.6 M), glycerol (20%) or urea (1.5 M). After overnight incubation at 4°C, diluted protein was filtered across a 100,000 MWCO microconcentrator (Amicon Ultra 0.5, EMD Millipore) at 14,000 x g. Concentrate was considered aggregated protein, while flow through was considered non-aggregated protein. Concentrate and flow through were resuspended to equal volumes and analyzed via SDS-PAGE; protein was visualized with SYPRO Ruby stain on a fluorescence imaging scanner. ImageJ software was used to measure ratios of non-aggregated to aggregated protein [26].

T3 sequence (Q07817 with tags, fused parts or gaps DEL45-84): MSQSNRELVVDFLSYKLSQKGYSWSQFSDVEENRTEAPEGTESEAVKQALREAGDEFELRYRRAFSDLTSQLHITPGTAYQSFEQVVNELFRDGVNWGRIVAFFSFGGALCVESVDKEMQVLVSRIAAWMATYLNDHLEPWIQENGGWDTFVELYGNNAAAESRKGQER

Row | Molecule | Effect on GCK kinetics under Szlyk et al. buffer conditions (GCK; S118D BADGST 5 μM, or pBH3 5 μM, 96 well plate, S2 Fig) | Effect on GCK Vmax (GCK; listed as phosphorylated BAD BH3 peptide) | Effect on GCK Vmax (GCK; listed as phosphorylated BH3 peptide) | Complex with GCK by size-exclusion chromatography (human pancreatic GCK) | Random coil content [1] [%] | α-helical content [1] [%] | β-sheet content [1] [%] | Complex formation with Bcl-xL by size-exclusion chromatography (Bcl-xL) | Complex with GCK by chemical cross-linking (glucokinase (GCK)) | Aggregation, effect of refolding additives [2]
1 | NLWAAQRYGRELRRM(p)SDKFVD [pBH3, 21-residue phosphorylated peptide containing the BH3 domain of BAD] | did not increase BAD’s effects on GCK kinetics | no statistically significant difference in the GCK Vmax value | lack of an increase in the GCK Vmax value |  |  |  |  |  |  | 
2 | B1 |  |  |  | No evidence of a higher molecular weight complex is observed; also recorded: provides no evidence of complex formation | 30 | 10 | 37 | three peaks corresponding to monomeric Bcl-xL, the BAD-GST dimer, and the BAD-GST:Bcl-xL complex; also recorded: confirms formation of a higher molecular weight complex between BAD-GST and Bcl-xL | does not support the formation of a BAD-GST:GCK complex | essential to prevent aggregation of recombinant BAD
